Data from paper PMC9738581, “Dissection of Functional Domains of Orc1-2, the Archaeal Global DNA Damage-Responsive Regulator”.

T1: Orc1-2 WT (Saccharolobus islandicus REY15A, UniProt F0NF18 1-413)
T1 sequence: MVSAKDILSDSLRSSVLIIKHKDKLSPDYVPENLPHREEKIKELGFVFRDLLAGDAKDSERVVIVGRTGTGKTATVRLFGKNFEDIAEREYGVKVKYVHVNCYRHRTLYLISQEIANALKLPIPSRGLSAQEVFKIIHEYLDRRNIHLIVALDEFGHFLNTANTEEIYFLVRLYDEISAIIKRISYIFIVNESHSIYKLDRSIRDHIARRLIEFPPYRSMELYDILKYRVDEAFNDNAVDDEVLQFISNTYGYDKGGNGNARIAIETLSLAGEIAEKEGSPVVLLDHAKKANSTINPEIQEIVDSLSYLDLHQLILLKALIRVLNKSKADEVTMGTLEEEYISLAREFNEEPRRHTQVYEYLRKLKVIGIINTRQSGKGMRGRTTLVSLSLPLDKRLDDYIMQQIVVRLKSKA

T2: Orc1-2 ΔN (Saccharolobus islandicus REY15A, UniProt F0NF18 299-413)
T2 sequence: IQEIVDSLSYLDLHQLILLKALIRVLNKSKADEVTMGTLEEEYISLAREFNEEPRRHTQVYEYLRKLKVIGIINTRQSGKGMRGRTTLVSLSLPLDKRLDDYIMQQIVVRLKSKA

T3: Orc1-2 ΔC (Saccharolobus islandicus REY15A, UniProt F0NF18 1-298)
T3 sequence: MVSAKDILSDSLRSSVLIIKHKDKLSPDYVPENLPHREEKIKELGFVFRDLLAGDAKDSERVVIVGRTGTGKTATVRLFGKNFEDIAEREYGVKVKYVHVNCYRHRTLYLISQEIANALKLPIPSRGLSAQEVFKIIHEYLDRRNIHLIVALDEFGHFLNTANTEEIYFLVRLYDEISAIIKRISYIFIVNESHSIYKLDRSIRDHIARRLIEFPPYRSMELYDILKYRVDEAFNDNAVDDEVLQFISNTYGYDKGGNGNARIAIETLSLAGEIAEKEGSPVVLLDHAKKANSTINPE

T4: Orc1-2 wH (Saccharolobus islandicus REY15A, UniProt F0NF18 1-413, R353A;R354A;R381A;R383A)
T4 sequence: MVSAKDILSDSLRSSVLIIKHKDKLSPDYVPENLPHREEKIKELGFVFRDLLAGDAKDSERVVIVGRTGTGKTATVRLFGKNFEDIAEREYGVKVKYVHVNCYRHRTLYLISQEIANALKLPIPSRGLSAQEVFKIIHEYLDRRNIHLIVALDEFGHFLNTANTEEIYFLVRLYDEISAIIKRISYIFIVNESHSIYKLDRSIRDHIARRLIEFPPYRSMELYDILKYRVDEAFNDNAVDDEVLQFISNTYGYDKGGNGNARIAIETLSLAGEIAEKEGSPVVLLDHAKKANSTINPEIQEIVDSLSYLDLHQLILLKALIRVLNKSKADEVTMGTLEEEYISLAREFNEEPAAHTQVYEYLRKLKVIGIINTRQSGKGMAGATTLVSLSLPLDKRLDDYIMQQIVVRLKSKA

T5: Orc1-2 WB (Saccharolobus islandicus REY15A, UniProt F0NF18 1-413, E154A)
T5 sequence: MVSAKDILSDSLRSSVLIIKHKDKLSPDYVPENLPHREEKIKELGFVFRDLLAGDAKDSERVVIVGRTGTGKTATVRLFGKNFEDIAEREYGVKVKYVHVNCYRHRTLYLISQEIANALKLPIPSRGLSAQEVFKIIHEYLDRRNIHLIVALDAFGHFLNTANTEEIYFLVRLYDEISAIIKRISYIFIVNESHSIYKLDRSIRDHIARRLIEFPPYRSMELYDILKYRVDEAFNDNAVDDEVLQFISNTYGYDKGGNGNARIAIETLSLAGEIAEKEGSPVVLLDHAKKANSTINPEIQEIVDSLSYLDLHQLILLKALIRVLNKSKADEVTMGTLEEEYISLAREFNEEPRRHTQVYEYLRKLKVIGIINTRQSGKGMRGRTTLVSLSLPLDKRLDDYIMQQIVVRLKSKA


What was measured:
Settings in all cases: protein: recombinant; tags: His; label: 5'-32P; blunt
Orc1-2 WT [1] = biological target: T1, Orc1-2 WT; assay: EMSA; 25 nM protein, unlabeled specific competitor; affinity very similar to PupsE; EMSA: 20 mM HEPES pH 7.6, 10 mM (NH4)2SO4, 1 mM DTT, 0.2% Tween-20, 30 mM KCl, 40 °C 20 min, 2 nM probe; 8% native PAGE in 40 mM Tris, 20 mM boric acid
Orc1-2 ΔN = biological target: T2, Orc1-2 ΔN; assay: EMSA; large complexes, distributive; two distinct complexes at lowest protein concentration; EMSA: 20 mM HEPES pH 7.6, 10 mM (NH4)2SO4, 1 mM DTT, 0.2% Tween-20, 30 mM KCl, 40 °C 20 min, 2 nM probe; 8% native PAGE in 40 mM Tris, 20 mM boric acid
Orc1-2 ΔC = biological target: T3, Orc1-2 ΔC; assay: EMSA; EMSA: 20 mM HEPES pH 7.6, 10 mM (NH4)2SO4, 1 mM DTT, 0.2% Tween-20, 30 mM KCl, 40 °C 20 min, 2 nM probe; 8% native PAGE in 40 mM Tris, 20 mM boric acid
Orc1-2 wH = biological target: T4, Orc1-2 wH; assay: as above
Orc1-2 WT [2] = biological target: T1, Orc1-2 WT; assay: as above
Orc1-2 WB = biological target: T5, Orc1-2 WB; assay: EMSA; similar or stronger than WT; EMSA: 20 mM HEPES pH 7.6, 10 mM (NH4)2SO4, 1 mM DTT, 0.2% Tween-20, 30 mM KCl, 40 °C 20 min, 2 nM probe; 8% native PAGE in 40 mM Tris, 20 mM boric acid

Binder	binding result (Orc1-2 WT [1])	binding result (Orc1-2 ΔN)	binding result (Orc1-2 ΔC)	binding result (Orc1-2 wH)	binding result (Orc1-2 WT [2])	binding result (Orc1-2 WB)
Porc1-2 (dsDNA) DNA 1: TTTGAGAAAGAATCAAGAAAAGTTTCGGACTACTCTCTTAGATAAA DNA 2: TTTATCTAAGAGAGTAGTCCGAAACTTTTCTTGATTCTTTCTCAAA	binds	–	–	–	–	–
PupsE (dsDNA) DNA 1: CTATAAAGGAAGTTTTAAGTAATTTCGGTATTGTGTGAGTATATTT DNA 2: AAATATACTCACACAATACCGAAATTACTTAAAACTTCCTTTATAG	–	binds	no binding	no binding	binds	binds
